* marks the point of attachment. Biotin = O=C1N[C@H]2[C@H](CS[C@H]2CCCCC(=O)*)N1
Experiments:
[1] = target: WT α-syn stabilized oligomers (Homo sapiens (Human)., UniProt P37840); assay: ELISA; 80 pmol αSP1 immobilised on the plate, 160 pmol of each α-syn species added, detection by anti-α-syn-HRP; blocking with 5% goat serum in TBS; conditions: both partners purified
[2] = target: wild-type α-synuclein, monomeric (UniProt P37840); assay: ELISA; indirect ELISA: 30 μM WT or ΔP1 α-syn monomers coated on MaxiSorp plate, 1-10 μM αSP1 for 1 h at room temperature, detection by anti-six-His HRP; TBS; conditions: both partners purified
[3] = target: WT α-syn samples collected after aggregation for 48 h (Homo sapiens (Human)., UniProt P37840); assay: ELISA; indirect ELISA: aliquots of a 20 μM WT α-syn aggregation taken at 0, 5, 10, 24 and 48 h coated on the plate, 2 μM αSP1, detection by anti-six-His HRP; conditions: both partners purified
[4] = target: T1, synthetic peptide with the sequence of P1 from α-syn (Homo sapiens (Human)., SMILES CC(C)C[C@H](NC(=O)[C@@H](NC(=O)CNC(=O)CCCC[C@@H]1SC[C@@H]2NC(=O)N[C@@H]21)C(C)C)C(=O)N[C@@H](Cc1ccc(O)cc1)C(=O)N[C@H](C(=O)NCC(=O)N[C@@H](CO)C(N)=O)C(C)C); assay: ELISA; screen in 96 wells: protein A coated, anti-c-Myc antibody, sybody from diluted periplasmic extract captured, then 500 nM biotinylated peptide, streptavidin-HRP; TBS with 0.5% BSA; OD 650 nm; conditions: one partner purified
T1 construct: P1 region of α-synuclein, residues 36-42; also called P1 peptide; peptide P1; source: synthetic peptide, bought: GenScript
T1 chain: Biotin-GVLYVGS-NH2

binding result [1]: binds
binding result [2]: binds
binding result [3]: binds
B1: sybody αSP1 (VHH)
VHH: QVQLVESGGGLVQAGGSLRLSCAASGFPVRHQWMEWYRQAPGKEREWVAAISSFGQWTKYADSVKGRFTISRDNAKNTVYLQMNSLKPEDTAVYYCVVEVGYEYYGQGTQVTVSA
notes: His35 stands in CDR1; Synthetic single-domain antibody; results: NTA-Alexa Fluor 647; this is not a covalent change of a residue; also called aSP1; source: in periplasmic extract for the screen; purified (Ni-NTA, SEC) for all other experiments; not shown: Myc, C-terminal, kept; His tag, C-terminal, kept
binding result [4]: binds

Reference: paper PMC11215725, “A Potent Sybody Selectively Inhibits α-Synuclein Amyloid Formation by Binding to the P1 Region” (Journal of Medicinal Chemistry, 2024)
